Reference: US20050266009A1
Blank lines part the entries; values can stand above or below the binder they belong to.

What was measured:
[1] = biological target: T1, PSGL-1 (P-Selectin Glycoprotein Ligand-1) on cells (human) (UniProt Q14242); experiment: FACS, whole blood sample #1, lymphocytes, 1 µg scFv
T1 sequence (looked up): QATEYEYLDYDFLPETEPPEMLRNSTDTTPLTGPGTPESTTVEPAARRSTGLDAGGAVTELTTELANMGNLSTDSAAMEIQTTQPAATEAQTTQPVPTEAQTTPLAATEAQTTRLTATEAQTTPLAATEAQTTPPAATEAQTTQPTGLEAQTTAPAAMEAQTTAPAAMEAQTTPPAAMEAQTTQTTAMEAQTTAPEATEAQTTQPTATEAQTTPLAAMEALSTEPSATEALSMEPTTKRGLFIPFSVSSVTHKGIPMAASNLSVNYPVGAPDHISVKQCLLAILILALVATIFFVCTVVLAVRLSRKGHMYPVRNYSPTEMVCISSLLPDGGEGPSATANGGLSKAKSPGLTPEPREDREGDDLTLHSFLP

[2] = biological target: GPIb on human platelets (human) (UniProt P07359); experiment: FACS on platelets, PRP sample #2, 1 µg scFv; PRP sample #2, 1 µg scFv
GPIb on human platelets (human), sequence (P07359 17-652): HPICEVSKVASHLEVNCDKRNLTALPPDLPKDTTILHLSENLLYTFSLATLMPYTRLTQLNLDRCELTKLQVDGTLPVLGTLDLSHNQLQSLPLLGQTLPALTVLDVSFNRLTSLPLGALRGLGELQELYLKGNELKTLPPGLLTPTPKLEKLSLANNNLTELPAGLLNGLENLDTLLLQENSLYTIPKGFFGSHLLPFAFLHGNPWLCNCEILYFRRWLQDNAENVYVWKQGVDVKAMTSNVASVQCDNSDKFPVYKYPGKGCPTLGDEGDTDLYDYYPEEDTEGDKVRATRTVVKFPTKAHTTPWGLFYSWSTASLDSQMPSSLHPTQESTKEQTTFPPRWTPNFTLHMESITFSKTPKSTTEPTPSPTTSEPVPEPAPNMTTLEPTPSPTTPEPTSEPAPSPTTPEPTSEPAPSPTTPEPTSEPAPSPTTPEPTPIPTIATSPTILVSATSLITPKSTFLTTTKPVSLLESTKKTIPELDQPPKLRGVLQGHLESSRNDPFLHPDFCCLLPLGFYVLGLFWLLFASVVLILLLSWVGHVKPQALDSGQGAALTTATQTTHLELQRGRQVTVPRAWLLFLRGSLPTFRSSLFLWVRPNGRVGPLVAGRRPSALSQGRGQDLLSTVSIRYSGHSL

[3] = biological target: T1, PSGL-1 (P-Selectin Glycoprotein Ligand-1) on cells (human); experiment: FACS, whole blood sample #1, lymphocytes, 0.1 µg scFv
[4] = biological target: T1, PSGL-1 (P-Selectin Glycoprotein Ligand-1) on cells (human); experiment: FACS, whole blood sample #2, granulocytes, 0.1 µg scFv
[5] = biological target: T1, PSGL-1 (P-Selectin Glycoprotein Ligand-1) on cells (human); experiment: FACS, whole blood sample #1, monocytes, 0.5 µg scFv
[6] = biological target: T1, PSGL-1 (P-Selectin Glycoprotein Ligand-1) on cells (human); experiment: FACS, whole blood sample #2, monocytes, 0.1 µg scFv
[7] = biological target: T1, PSGL-1 (P-Selectin Glycoprotein Ligand-1) on cells (human); experiment: FACS, whole blood sample #1, granulocytes, 0.5 µg scFv
[8] = biological target: T1, PSGL-1 (P-Selectin Glycoprotein Ligand-1) on cells (human); experiment: FACS, whole blood sample #2, lymphocytes, 0.1 µg scFv
[9] = biological target: T1, PSGL-1 (P-Selectin Glycoprotein Ligand-1) on cells (human); experiment: FACS, whole blood sample #2, monocytes, 1 µg scFv
[10] = biological target: T1, PSGL-1 (P-Selectin Glycoprotein Ligand-1) on cells (human); experiment: FACS, whole blood sample #1, granulocytes, 0.1 µg scFv
[11] = biological target: T1, PSGL-1 (P-Selectin Glycoprotein Ligand-1) on cells (human); experiment: FACS, whole blood sample #2, granulocytes, 0.5 µg scFv
[12] = biological target: GPIb on guinea pig platelets (guinea pig); experiment: cell-based or functional assay
[13] = biological target: T1, PSGL-1 (P-Selectin Glycoprotein Ligand-1) on cells (human); experiment: FACS, whole blood sample #2, monocytes, 0.5 µg scFv
[14] = biological target: GPIb on human platelets (human) (UniProt P07359); experiment: FACS on platelets, PRP sample #1, 1 µg scFv; PRP sample #1, 1 µg scFv
[15] = biological target: T1, PSGL-1 (P-Selectin Glycoprotein Ligand-1) on cells (human); experiment: FACS on ML-2 cells in 50% plasma, purified scFv
[16] = biological target: T1, PSGL-1 (P-Selectin Glycoprotein Ligand-1) on cells (human); experiment: FACS, whole blood sample #2, lymphocytes, 0.5 µg scFv
[17] = biological target: GPIb on human platelets (human) (UniProt P07359); experiment: FACS on platelets, PRP sample #2, 2 µg scFv; PRP sample #2, 2 µg scFv
[18] = biological target: T1, PSGL-1 (P-Selectin Glycoprotein Ligand-1) on cells (human); experiment: FACS, whole blood sample #2, lymphocytes, 1 µg scFv
[19] = biological target: T1, PSGL-1 (P-Selectin Glycoprotein Ligand-1) on cells (human); experiment: FACS, whole blood sample #1, granulocytes, 1 µg scFv
[20] = biological target: T1, PSGL-1 (P-Selectin Glycoprotein Ligand-1) on cells (human); experiment: FACS, whole blood sample #2, granulocytes, 1 µg scFv
[21] = biological target: T1, PSGL-1 (P-Selectin Glycoprotein Ligand-1) on cells (human); experiment: FACS, whole blood sample #1, monocytes, 0.1 µg scFv
[22] = biological target: T2, CCR5 (residues 1-18) derived peptide sulfated at 2nd tyrosine position; experiment: ELISA on coated peptide
T2 sequence (peptide, sulfated at 2nd tyrosine position): MDYQVSSPIYDINYYTSE

[23] = biological target: T3, PSGL-1 (residues 42-58) derived peptide sulfated at 1st tyrosine position; experiment: ELISA on coated peptide
T3 sequence (peptide, sulfated at 1st tyrosine position): QATEYEYLDYDFLPETE

[24] = biological target: T4, GPIb (residues 268-285) derived peptide sulfated at 1st tyrosine position; experiment: ELISA on coated peptide
T4 sequence (peptide, sulfated at 1st tyrosine position): GDEGDTDLYDYYPEEDTE

[25] = biological target: T5, GPIb (residues 268-285) derived peptide sulfated at 3rd tyrosine position; experiment: ELISA on coated peptide
T5 sequence (peptide, sulfated at 3rd tyrosine position): GDEGDTDLYDYYPEEDTE

[26] = biological target: T6, CCR5 (residues 1-18) derived peptide sulfated at 3rd tyrosine position; experiment: ELISA on coated peptide
T6 sequence (peptide, sulfated at 3rd tyrosine position): MDYQVSSPIYDINYYTSE

[27] = biological target: T7, PSGL-1 (residues 42-58) derived peptide sulfated at 2nd tyrosine position; experiment: ELISA on coated peptide
T7 sequence (peptide, sulfated at 2nd tyrosine position): QATEYEYLDYDFLPETE

[28] = biological target: T8, PSGL-1 (residues 42-58) derived peptide sulfated at 3rd tyrosine position; experiment: ELISA on coated peptide
T8 sequence (peptide, sulfated at 3rd tyrosine position): QATEYEYLDYDFLPETE

[29] = biological target: T9, CCR5 (residues 1-18) derived peptide sulfated at 1st tyrosine position; experiment: ELISA on coated peptide
T9 sequence (peptide, sulfated at 1st tyrosine position): MDYQVSSPIYDINYYTSE

[30] = biological target: GPIb on human platelets (human) (UniProt P07359); experiment: FACS on platelets in PRP, 1 µg scFv; mean of PRP samples #1 and #2, 1 µg scFv
[31] = biological target: T1, PSGL-1 (P-Selectin Glycoprotein Ligand-1) on cells (human); experiment: FACS, whole blood sample #1, monocytes, 1 µg scFv
[32] = biological target: T1, PSGL-1 (P-Selectin Glycoprotein Ligand-1) on cells (human); experiment: FACS on ML-2 cells in PBS, purified scFv
glycocalicin = glycocalicin (UniProt P07359); experiment: SPR (BIAcore 3000), glycocalicin immobilized on CM5 chip
glycocalicin, sequence (P07359 17-531 limits assumed): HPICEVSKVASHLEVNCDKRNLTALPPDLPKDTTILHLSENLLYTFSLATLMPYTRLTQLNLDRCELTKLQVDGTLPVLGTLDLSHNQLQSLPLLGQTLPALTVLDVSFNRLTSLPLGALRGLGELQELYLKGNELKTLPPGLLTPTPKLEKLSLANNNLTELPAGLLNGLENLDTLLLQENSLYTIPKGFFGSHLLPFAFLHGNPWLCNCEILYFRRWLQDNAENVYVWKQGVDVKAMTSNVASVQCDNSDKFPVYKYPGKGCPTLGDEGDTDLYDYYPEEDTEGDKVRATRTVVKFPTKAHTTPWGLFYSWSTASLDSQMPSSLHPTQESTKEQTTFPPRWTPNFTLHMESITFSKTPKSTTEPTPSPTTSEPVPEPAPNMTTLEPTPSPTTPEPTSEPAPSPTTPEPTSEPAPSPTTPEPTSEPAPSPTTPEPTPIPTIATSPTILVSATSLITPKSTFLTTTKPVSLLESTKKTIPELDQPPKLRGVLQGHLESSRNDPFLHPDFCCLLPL

[33] = biological target: T1, PSGL-1 (P-Selectin Glycoprotein Ligand-1) on cells (human); experiment: FACS, whole blood sample #1, lymphocytes, 0.5 µg scFv
[34] = biological target: GPIb on human platelets (human) (UniProt P07359); experiment: FACS on platelets, PRP sample #1, 2 µg scFv; PRP sample #1, 2 µg scFv
[35] = biological target: GPIb on guinea pig platelets (guinea pig); experiment: FACS on guinea pig platelets
[36] = biological target: T10, PSGL-1 (residues 42-58) derived peptide, non-sulfated; experiment: ELISA on coated peptide
T10 sequence (peptide): QATEYEYLDYDFLPETE

[37] = biological target: T11, CCR5 (residues 1-18) derived peptide, non-sulfated; experiment: ELISA on coated peptide
T11 sequence (peptide): MDYQVSSPIYDINYYTSE

[38] = biological target: T12, GPIb (residues 268-285) derived peptide, non-sulfated; experiment: ELISA on coated peptide
T12 sequence (peptide): GDEGDTDLYDYYPEEDTE

- Geo Mean [1]: 120
- Geo Mean [2]: 23
- Geo Mean [3]: 36
- Geo Mean [4]: 44
- Geo Mean [5]: 192
- Geo Mean [6]: 69
- Geo Mean [7]: 100
- Geo Mean [8]: 18
- Geo Mean [9]: 340
- Geo Mean [10]: 26
- Geo Mean [11]: 151
- inhibition of guinea pig platelet aggregation, IC50 [12]: 80 to 160 µg/mL
- Geo Mean [13]: 248
- Geo Mean [14]: 30
- fold binding compared to L32 and Y1 [15]: > 10 fold
- Geo Mean [16]: 78
- Geo Mean [17]: 68
- Geo Mean [18]: 112
- Geo Mean [19]: 150
- Geo Mean [20]: 220
- Geo Mean [21]: 56
- ELISA reading at 450 nm [22]: 0.3
- ELISA reading at 450 nm [23]: 0.02
- ELISA reading at 450 nm [24]: 0.6
- ELISA reading at 450 nm [25]: 0.3
- ELISA reading at 450 nm [26]: 0.16
- ELISA reading at 450 nm [27]: 0.2
- ELISA reading at 450 nm [28]: 0.6
- ELISA reading at 450 nm [29]: 0.12
- average geo mean of both PRP samples [30]: 26
- Geo Mean [31]: 290
- fold binding compared to L32 and Y1 [32]: > 100 fold
- Kd (glycocalicin): 180 nM
- koff (glycocalicin): 0.43 s⁻¹
- Geo Mean [33]: 81
- Geo Mean [34]: 120
B1: S15 scFv (scFv)
scFv: EVQLVESGGGVVRPGGSLRLSCAASGFTFDLNPKVKHMWVRQAPGKGLEWVSGINWNGGSTGYADSVKGRFTISRDNAKNSLYLQMNSLRAEDTAVYYCARLRRPSIWGQGTLVTVSRGGGGSGGGGSGGGGSSELTQDPAVSVALGQTVRITCQGDSLRSYYASWYQQKPGQAPVLVIYGKNNRPSGIPDRFSGSSSGNTASLTITGAQAEDEADYYCNSRDSSGNHVVFGGGTKLTVLGAAAEQKLISEEDLNGAA

- fold binding capacity relative to Y1 [35]: 25 fold
- ELISA reading at 450 nm [22]: 0.7
- ELISA reading at 450 nm [23]: 0.16
- ELISA reading at 450 nm [24]: 0.6
- ELISA reading at 450 nm [25]: 0.3
- ELISA reading at 450 nm [26]: 0.11
- ELISA reading at 450 nm [27]: 0.12
- ELISA reading at 450 nm [36]: 0.01
- ELISA reading at 450 nm [28]: 0.7
- ELISA reading at 450 nm [37]: 0.08
- ELISA reading at 450 nm [38]: 0.1
- ELISA reading at 450 nm [29]: 0.12
B2: S11 scFv (scFv, from a related filing)
scFv: EVQLVESGGGVVRPGGSLRLSCAASGFTFDLNPKVKHMWVRQAPGKGLEWVSGINWNGGSTGYADSVKGRFTISRDNAKNSLYLQMNSLRAEDTAVYYCARLRYPFFWGQGTLVTVSRGGGGSGGGGSGGGGSSELTQDPAVSVALGQTVRITCQGDSLRSYYASWYQQKPGQAPVLVIYGKNNRPSGIPDRFSGSSSGNTASLTITGAQAEDEADYYCNSRDSSGNHVVFGGGTKLTVLGAAAEQKLISEEDLNGAA

- fold binding capacity relative to Y1 [35]: 25 fold
- ELISA reading at 450 nm [22]: 0.3
- ELISA reading at 450 nm [23]: 0.1
- ELISA reading at 450 nm [24]: 0.8
- ELISA reading at 450 nm [25]: 0.15
- ELISA reading at 450 nm [26]: 0.07
- ELISA reading at 450 nm [27]: 0.08
- ELISA reading at 450 nm [36]: 0.07
- ELISA reading at 450 nm [28]: 0.8
- ELISA reading at 450 nm [37]: 0.06
- ELISA reading at 450 nm [38]: 0.07
- ELISA reading at 450 nm [29]: 0.07
B3: S1 scFv (scFv, from a related filing)
scFv: EVQLVESGGGVVRPGGSLRLSCAASGFTFDLNPKVKHMWVRQAPGKGLEWVSGINWNGGSTGYADSVKGRFTISRDNAKNSLYLQMNSLRAEDTAVYYCARLRPPFLWGQGTLVTVSRGGGGSGGGGSGGGGSSELTQDPAVSVALGQTVRITCQGDSLRSYYASWYQQKPGQAPVLVIYGKNNRPSGIPDRFSGSSSGNTASLTITGAQAEDEADYYCNSRDSSGNHVVFGGGTKLTVLGAAAEQKLISEEDLNGAA
